± gives the standard deviation of the averaged measurements.
Legend:
Assay in all cases: protein stability index of tFT-peptide fusion (C-terminal peptide) (PSI (0-1 scale)); higher = more stable (slower turnover)
[1] = tested on: Saccharomyces cerevisiae; conditions: temperature: 30 C
Procedure: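 MPS profiling in S. cerevisiae of the yeast C-terminome library: the last 12 aa of each annotated ORF are fused to the C-terminus of a sfGFP-mCherry timer, after a GGGS linker. Cells are FACS-sorted into 8 mCherry/sfGFP bins and deep-sequenced. PSI runs from 0 (unstable) to 1 (stable); wild type and das1Δ backgrounds, two technical replicates each.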

[2] = tested on: Saccharomyces cerevisiae
Procedure: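 MPS profiling in S. cerevisiae of the tFT-X12 degron library: putative degron peptides plus stable controls, 12 aa, fused to the C-terminus of a sfGFP-mCherry timer. Cells are FACS-sorted into 8 mCherry/sfGFP bins and deep-sequenced. PSI runs from 0 (unstable) to 1 (stable). Backgrounds are wild type, das1Δ and doa10Δ at 30 °C, and wild type, das1Δ, cdc34-1 and cdc53-1 at 37 °C; 2-3 technical replicates each.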

[3] = tested on: Saccharomyces cerevisiae; conditions: genetic background: wild type; temperature: 30 C
[4] = genetic background: das1 deletion
[5] = genetic background: cdc34-1, temperature: 37 C
[6] = genetic background: cdc53-1, temperature: 37 C
[7] = genetic background: das1 deletion, temperature: 30 C
[8] = genetic background: das1 deletion, temperature: 37 C
[9] = genetic background: doa10 deletion, temperature: 30 C
[10] = genetic background: wild type, temperature: 30 C
[11] = genetic background: wild type, temperature: 37 C

| Sequence | protein stability index [1, 4] | protein stability index ([1]; genetic background: wild type) | protein stability index [2, 5] | protein stability index [2, 6] | protein stability index [2, 7] | protein stability index [2, 8] | protein stability index [2, 9] | protein stability index [2, 10] | protein stability index [2, 11] | protein stability index [3] |
| --- | --- | --- | --- | --- | --- | --- | --- | --- | --- | --- |
| VVTYTLKVDLKV [YLR152C C-terminal 12 aa] | 0.469 ± 0.025 | 0.491 ± 0.012 |  |  |  |  |  |  |  |  |
| FKQSEITLYRTR [PEP8 C-terminal 12 aa] | 0.693 ± 0.032 | 0.722 ± 0.11 |  |  |  |  |  |  |  |  |
| NLMEMFTKRDRS [ROD1 C-terminal 12 aa] | 0.72 ± 0.022 | 0.713 ± 0.033 |  |  |  |  |  |  |  |  |
| DLKTGNAVKGEL [SSZ1 C-terminal 12 aa] | 0.669 ± 0.019 | 0.6914 ± 0.0056 |  |  |  |  |  |  |  |  |
| HIFYFVLSYSEW [YIL030W-A C-terminal 12 aa] | 0.172 ± 0.022 | 0.192 ± 0.0083 |  |  |  |  |  |  |  |  |
| ACYVQLKKSGAF [COX8 C-terminal 12 aa] | 0.6966 ± 0.0035 | 0.669 ± 0.024 |  |  |  |  |  |  |  |  |
| PVHLQTVGLVDC [PIR5 C-terminal 12 aa] | 0.623 ± 0.032 | 0.672 ± 0.058 |  |  |  |  |  |  |  |  |
| LDLQNQNKKNLW [PIN4 C-terminal 12 aa] | 0.707 ± 0.02 | 0.707 ± 0.023 |  |  |  |  |  |  |  |  |
| EIDGQFCIFQVV [YJL107C C-terminal 12 aa] | 0.711 ± 0.013 | 0.647 ± 0.031 |  |  |  |  |  |  |  |  |
| CVTQACGRTIKM [YBR141W-A C-terminal 12 aa] | 0.732 ± 0.037 | 0.779 ± 0.13 |  |  |  |  |  |  |  |  |
| KKLEGTIEYQKL [RPT4 C-terminal 12 aa] | 0.708 ± 0.027 | 0.702 ± 0.012 |  |  |  |  |  |  |  |  |
| AIFTAFTQVVLI [TOH1 C-terminal 12 aa] | 0.4858 ± 0.0044 | 0.4983 ± 0.00094 |  |  |  |  |  |  |  |  |
| NDIFIPEQEHKQ [HPT1 C-terminal 12 aa] | 0.721 ± 0.011 | 0.674 ± 0.029 |  |  |  |  |  |  |  |  |
| AQGGFAQWATGQ [APS3 C-terminal 12 aa] | 0.718 ± 0.0089 | 0.683 ± 0.04 |  |  |  |  |  |  |  |  |
| PICIVGNFIPLS [RDS2 C-terminal 12 aa] | 0.689 ± 0.024 | 0.722 ± 0.024 |  |  |  |  |  |  |  |  |
| LQNNDVTIGFAK [MUD1 C-terminal 12 aa] | 0.715 ± 0.0077 | 0.655 ± 0.02 |  |  |  |  |  |  |  |  |
| PYKSTELRSVAN [YDL187C C-terminal 12 aa] | 0.671 ± 0.04 | 0.742 ± 0.048 |  |  |  |  |  |  |  |  |
| SNPSSHIKKKGL [RRT6 C-terminal 12 aa] | 0.682 ± 0.014 | 0.6362 ± 0.0061 |  |  |  |  |  |  |  |  |
| QEPVIDPGTVVV [MRPL3 C-terminal 12 aa] | 0.6775 ± 0.0024 | 0.676 ± 0.011 |  |  |  |  |  |  |  |  |
| RSTNGRPQRGYR [YLR326W C-terminal 12 aa] | 0.675 ± 0.027 | 0.664 ± 0.0025 |  |  |  |  |  |  |  |  |

| Sequence | protein stability index [1, 4] | protein stability index ([1]; genetic background: wild type) | protein stability index [2, 5] | protein stability index [2, 6] | protein stability index [2, 7] | protein stability index [2, 8] | protein stability index [2, 9] | protein stability index [2, 10] | protein stability index [2, 11] | protein stability index [3] |
| --- | --- | --- | --- | --- | --- | --- | --- | --- | --- | --- |
| NDDNFDDAQEQQ [SEC2 C-terminal 12 aa] | 0.6977 ± 0.0015 | 0.7002 ± 0.0057 |  |  |  |  |  |  |  |  |
| QAQLTAATNAKQ [PDC5 C-terminal 12 aa] | 0.6916 ± 0.0017 | 0.731 ± 0.069 |  |  |  |  |  |  |  |  |
| VTSGKAHFVLYN [SIM1 C-terminal 12 aa] | 0.695 ± 0.017 | 0.655 ± 0.017 |  |  |  |  |  |  |  |  |
| FKSGQNMLKDEL [SCJ1 C-terminal 12 aa] | 0.681 ± 0.022 | 0.648 ± 0.0073 |  |  |  |  |  |  |  |  |
| EDEFLINSDDEM [CUE5 C-terminal 12 aa] | 0.726 ± 0.064 | 0.716 ± 0.037 |  |  |  |  |  |  |  |  |
| FVRSVFFCVSVG |  |  | 0.498 ± 0.037 | 0.531 ± 0.017 | 0.396 ± 0.029 | 0.548 ± 0.019 | 0.34 ± 0.012 | 0.373 ± 0.027 | 0.5 ± 0.018 | 0.469 ± 0.057 |
| YILLRWVNLSCL |  |  | 0.524 ± 0.012 | 0.587 ± 0.013 | 0.488 ± 0.022 | 0.645 ± 0.0099 | 0.149 ± 0.017 | 0.156 ± 0.021 | 0.283 ± 0.0069 | 0.236 ± 0.062 |
| LRFVCALGYCVW |  |  | 0.577 ± 0.042 | 0.645 ± 0.019 | 0.485 ± 0.027 | 0.6011 ± 0.0042 | 0.443 ± 0.015 | 0.461 ± 0.029 | 0.574 ± 0.0089 | 0.471 ± 0.0098 |
| LFSVLVFIYFVM |  |  | 0.102 ± 0.032 | 0.113 ± 0.017 | 0.169 ± 0.034 | 0.288 ± 0.07 | 0.17 ± 0.016 | 0.133 ± 0.0054 | 0.217 ± 0.025 | 0.127 ± 0.022 |
| EWGLGEIVVKVA |  |  | 0.563 ± 0.025 | 0.654 ± 0.013 | 0.534 ± 0.011 | 0.684 ± 0.015 | 0.138 ± 0.0032 | 0.162 ± 0.013 | 0.2153 ± 0.0017 | 0.259 ± 0.057 |
| IVFFVLFRFWRF |  |  | 0.354 ± 0.019 | 0.3827 ± 0.0031 | 0.326 ± 0.038 | 0.46 ± 0.025 | 0.318 ± 0.02 | 0.294 ± 0.017 | 0.442 ± 0.013 | 0.32 ± 0.047 |
| RYTWHGICIVTR |  |  | 0.43107 ± 0.00014 | 0.456 ± 0.013 | 0.312 ± 0.027 | 0.4805 ± 0.0035 | 0.285 ± 0.0063 | 0.313 ± 0.019 | 0.476 ± 0.0052 | 0.4401 ± 0.0033 |
| IFFVLVFFPGFF |  |  | 0.483 ± 0.036 | 0.541 ± 0.022 | 0.366 ± 0.035 | 0.548 ± 0.014 | 0.359 ± 0.023 | 0.374 ± 0.0071 | 0.506 ± 0.012 | 0.443 ± 0.06 |
| HDRLRGVFWRVP |  |  | 0.669 ± 0.066 | 0.739 ± 0.01 | 0.655 ± 0.038 | 0.74321 ± 0.00071 | 0.263 ± 0.015 | 0.308 ± 0.032 | 0.5752 ± 0.0019 | 0.439 ± 0.014 |
| QWRMLTCLMERL |  |  | 0.446 ± 0.034 | 0.553 ± 0.063 | 0.472 ± 0.015 | 0.4882 ± 0.0037 | 0.398 ± 0.056 | 0.379 ± 0.012 | 0.496 ± 0.03 | 0.379 ± 0.012 |
| VVSLGGWCLYIY |  |  | 0.423 ± 0.061 | 0.4605 ± 0.0016 | 0.416 ± 0.032 | 0.461 ± 0.012 | 0.385 ± 0.023 | 0.333 ± 0.019 | 0.416 ± 0.0093 | 0.412 ± 0.025 |
| PFFCFLLFCFSL |  |  | 0.477 ± 0.032 | 0.498 ± 0.0033 | 0.439 ± 0.033 | 0.5465 ± 0.00098 | 0.459 ± 0.0093 | 0.419 ± 0.027 | 0.5292 ± 0.0024 | 0.455 ± 0.037 |
| RFCLPLRLPVTT |  |  | 0.533 ± 0.028 | 0.5626 ± 0.0042 | 0.461 ± 0.037 | 0.5865 ± 0.0022 | 0.439 ± 0.0083 | 0.458 ± 0.016 | 0.589 ± 0.045 | 0.4497 ± 0.0012 |
| RGSLYLILVLIG |  |  | 0.194 ± 0.0058 | 0.349 ± 0.087 | 0.215 ± 0.024 | 0.4035 ± 0.00092 | 0.118 ± 0.033 | 0.163 ± 0.03 | 0.268 ± 0.021 | 0.269 ± 0.026 |
